Among the data in article PMC2673036, “Ancient mtDNA Genetic Variants Modulate mtDNA Transcription and Replication” are binding signal values, retold here.

A value given as a limit tells only on which side of the number the result lay.

Data set [1] deals with T1, TFAM (mitochondrial transcription factor A) (UniProt Q00059 43-246).
T1 sequence: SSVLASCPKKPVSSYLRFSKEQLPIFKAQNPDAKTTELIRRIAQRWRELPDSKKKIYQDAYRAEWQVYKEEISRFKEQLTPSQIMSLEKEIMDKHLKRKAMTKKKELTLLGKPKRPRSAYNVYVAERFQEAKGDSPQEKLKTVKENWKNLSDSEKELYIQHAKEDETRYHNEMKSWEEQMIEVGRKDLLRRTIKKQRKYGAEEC
Kind of data set: EMSA; TFAM:probe 10:1 and 25:1; increased binding vs wt-295, exact value only in figure; 10 mM Tris-HCl pH 7.5, 10 mM KCl, 1 mM DTT, 1 mM EDTA, 6% glycerol; 3 nM probe, 30 or 75 nM TFAM; 30 min, room temperature; 5% native PAGE, 0.5x TBE. The note with it: protein: recombinant; (PNK end label); blunt. (In general: In EMSA bound probe runs differently from free probe, usually more slowly.)

For data set [2], the target named is T1, TFAM (mitochondrial transcription …). Briefly: EMSA; TFAM:probe 10:1 and 25:1; reference for normalization; 10 mM Tris-HCl pH 7.5, 10 mM KCl, 1 mM DTT, 1 mM EDTA, 6% glycerol; 3 nM probe, 30 or 75 nM TFAM; 30 min, room temperature; 5% native PAGE, 0.5x TBE. The note with it: protein: recombinant; (PNK end label); blunt.

B1: C295T-VAR (haplogroup J, 276-303) (dsDNA)
DNA 1: ACATCATAACAAAAAATTTTCACCAAAC
DNA 2: GTTTGGTGAAAATTTTTTGTTATGATGT
Turning to B1, the binding signal in data set [1] is > 1 relative to wt-295.

B2: wt-295 (CRS 276-303) (dsDNA)
DNA 1: ACATCATAACAAAAAATTTCCACCAAAC
DNA 2: GTTTGGTGGAAATTTTTTGTTATGATGT
In the case of B2, the binding signal in data set [2] is 1 relative to wt-295.
